{"source": "patent US12679878B2", "about": "“CRF2 receptor agonists and their use in therapy” (SANOFI, priority 2020, dated 2026)", "biological_target": "T1, anti-target CRF1R receptor (UniProt P34998 24-415, limits assumed)", "T1 sequence (looked up)": "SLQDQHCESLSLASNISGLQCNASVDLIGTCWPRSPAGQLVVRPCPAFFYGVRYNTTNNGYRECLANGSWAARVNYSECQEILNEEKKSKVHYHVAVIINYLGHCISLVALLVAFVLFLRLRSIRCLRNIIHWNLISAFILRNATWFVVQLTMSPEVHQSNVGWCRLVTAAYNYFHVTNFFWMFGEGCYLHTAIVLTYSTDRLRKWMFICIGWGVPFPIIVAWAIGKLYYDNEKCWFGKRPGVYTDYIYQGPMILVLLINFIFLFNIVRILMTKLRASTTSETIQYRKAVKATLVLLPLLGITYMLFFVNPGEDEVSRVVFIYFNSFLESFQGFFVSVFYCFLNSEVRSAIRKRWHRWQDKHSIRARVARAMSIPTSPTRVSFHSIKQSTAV", "test": "cell-based or functional assay", "note": "Starred links: 1 amine or outer side, 2 acyl side, 3 side chain; linkers in the order of their positions; H or OH if unused. Non-standard residues stand in square brackets, D forms with d. Groups on a side chain read outwards from the residue. No end group written: not given here. *: point of attachment. γGlu = O=C(O)[C@H](CCC(=O)[*:2])N[*:1]; Palmitoyl = CCCCCCCCCCCCCCCC(=O)*"}
{"binder": "FTLSLDVPTKIK([γGlu-Palmitoyl])QKLLKQEKQKKQRQKAKTAKQILEQV-NH2 (N-terminus assumed; SMILES CCCCCCCCCCCCCCCC(=O)N[C@@H](CCC(=O)NCCCC[C@H](NC(=O)[C@@H](NC(=O)[C@H](CCCCN)NC(=O)[C@@H](NC(=O)[C@@H]1CCCN1C(=O)[C@@H](NC(=O)[C@H](CC(=O)O)NC(=O)[C@H](CC(C)C)NC(=O)[C@H](CO)NC(=O)[C@H](CC(C)C)NC(=O)[C@@H](NC(=O)[C@@H](N)Cc1ccccc1)[C@@H](C)O)C(C)C)[C@@H](C)O)[C@@H](C)CC)C(=O)N[C@@H](CCC(N)=O)C(=O)N[C@@H](CCCCN)C(=O)N[C@@H](CC(C)C)C(=O)N[C@@H](CC(C)C)C(=O)N[C@@H](CCCCN)C(=O)N[C@@H](CCC(N)=O)C(=O)N[C@@H](CCC(=O)O)C(=O)N[C@@H](CCCCN)C(=O)N[C@@H](CCC(N)=O)C(=O)N[C@@H](CCCCN)C(=O)N[C@@H](CCCCN)C(=O)N[C@@H](CCC(N)=O)C(=O)N[C@@H](CCCNC(=N)N)C(=O)N[C@@H](CCC(N)=O)C(=O)N[C@@H](CCCCN)C(=O)N[C@@H](C)C(=O)N[C@@H](CCCCN)C(=O)N[C@H](C(=O)N[C@@H](C)C(=O)N[C@@H](CCCCN)C(=O)N[C@@H](CCC(N)=O)C(=O)N[C@H](C(=O)N[C@@H](CC(C)C)C(=O)N[C@@H](CCC(=O)O)C(=O)N[C@@H](CCC(N)=O)C(=O)N[C@H](C(N)=O)C(C)C)[C@@H](C)CC)[C@@H](C)O)C(=O)O)", "note": "[peptide of SEQ ID NO: 9]", "values": [{"measurement": "EC50[nM] 0% HSA (cAMP, CRF1R-overexpression CHO cells)", "result": "> 1000", "unit": "nM"}, {"measurement": "Emax (%) (cAMP, CRF1R-overexpression CHO cells)", "result": 14.9, "unit": "%"}]}
{"binder": "FTLSLDVPTKIK([γGlu-Palmitoyl])QKLLKQEKQKKQRQKAKTNKQILEQV-NH2 (N-terminus assumed; SMILES CCCCCCCCCCCCCCCC(=O)N[C@@H](CCC(=O)NCCCC[C@H](NC(=O)[C@@H](NC(=O)[C@H](CCCCN)NC(=O)[C@@H](NC(=O)[C@@H]1CCCN1C(=O)[C@@H](NC(=O)[C@H](CC(=O)O)NC(=O)[C@H](CC(C)C)NC(=O)[C@H](CO)NC(=O)[C@H](CC(C)C)NC(=O)[C@@H](NC(=O)[C@@H](N)Cc1ccccc1)[C@@H](C)O)C(C)C)[C@@H](C)O)[C@@H](C)CC)C(=O)N[C@@H](CCC(N)=O)C(=O)N[C@@H](CCCCN)C(=O)N[C@@H](CC(C)C)C(=O)N[C@@H](CC(C)C)C(=O)N[C@@H](CCCCN)C(=O)N[C@@H](CCC(N)=O)C(=O)N[C@@H](CCC(=O)O)C(=O)N[C@@H](CCCCN)C(=O)N[C@@H](CCC(N)=O)C(=O)N[C@@H](CCCCN)C(=O)N[C@@H](CCCCN)C(=O)N[C@@H](CCC(N)=O)C(=O)N[C@@H](CCCNC(=N)N)C(=O)N[C@@H](CCC(N)=O)C(=O)N[C@@H](CCCCN)C(=O)N[C@@H](C)C(=O)N[C@@H](CCCCN)C(=O)N[C@H](C(=O)N[C@@H](CC(N)=O)C(=O)N[C@@H](CCCCN)C(=O)N[C@@H](CCC(N)=O)C(=O)N[C@H](C(=O)N[C@@H](CC(C)C)C(=O)N[C@@H](CCC(=O)O)C(=O)N[C@@H](CCC(N)=O)C(=O)N[C@H](C(N)=O)C(C)C)[C@@H](C)CC)[C@@H](C)O)C(=O)O)", "note": "[peptide of SEQ ID NO: 10]", "values": [{"measurement": "EC50[nM] 0% HSA (cAMP, CRF1R-overexpression CHO cells)", "result": "> 1000", "unit": "nM"}, {"measurement": "Emax (%) (cAMP, CRF1R-overexpression CHO cells)", "result": 10.2, "unit": "%"}]}
{"binder": "IVLSLDVPIGLK([γGlu-Palmitoyl])QKLLKQQRQRKERQQAETNARILARV-NH2 (N-terminus assumed; SMILES CCCCCCCCCCCCCCCC(=O)N[C@@H](CCC(=O)NCCCC[C@H](NC(=O)[C@H](CC(C)C)NC(=O)CNC(=O)[C@@H](NC(=O)[C@@H]1CCCN1C(=O)[C@@H](NC(=O)[C@H](CC(=O)O)NC(=O)[C@H](CC(C)C)NC(=O)[C@H](CO)NC(=O)[C@H](CC(C)C)NC(=O)[C@@H](NC(=O)[C@@H](N)[C@@H](C)CC)C(C)C)C(C)C)[C@@H](C)CC)C(=O)N[C@@H](CCC(N)=O)C(=O)N[C@@H](CCCCN)C(=O)N[C@@H](CC(C)C)C(=O)N[C@@H](CC(C)C)C(=O)N[C@@H](CCCCN)C(=O)N[C@@H](CCC(N)=O)C(=O)N[C@@H](CCC(N)=O)C(=O)N[C@@H](CCCNC(=N)N)C(=O)N[C@@H](CCC(N)=O)C(=O)N[C@@H](CCCNC(=N)N)C(=O)N[C@@H](CCCCN)C(=O)N[C@@H](CCC(=O)O)C(=O)N[C@@H](CCCNC(=N)N)C(=O)N[C@@H](CCC(N)=O)C(=O)N[C@@H](CCC(N)=O)C(=O)N[C@@H](C)C(=O)N[C@@H](CCC(=O)O)C(=O)N[C@H](C(=O)N[C@@H](CC(N)=O)C(=O)N[C@@H](C)C(=O)N[C@@H](CCCNC(=N)N)C(=O)N[C@H](C(=O)N[C@@H](CC(C)C)C(=O)N[C@@H](C)C(=O)N[C@@H](CCCNC(=N)N)C(=O)N[C@H](C(N)=O)C(C)C)[C@@H](C)CC)[C@@H](C)O)C(=O)O)", "note": "[peptide of SEQ ID NO: 5]", "values": [{"measurement": "EC50[nM] 0% HSA (cAMP, CRF1R-overexpression CHO cells)", "result": "> 1000", "unit": "nM"}, {"measurement": "Emax (%) (cAMP, CRF1R-overexpression CHO cells)", "result": 37.4, "unit": "%"}]}
{"binder": "IVLSLD[dV]PTKLK([γGlu-Palmitoyl])QKLLKQERQRKEREQAEKNARILARV-NH2 (not fully specified; printed as IVLSLDvPTKLK*QKLLKQERQRKEREQAEKNARILARV-NH2)", "note": "[peptide of SEQ ID NO: 7]", "values": [{"measurement": "EC50[nM] 0% HSA (cAMP, CRF1R-overexpression CHO cells)", "result": 588, "unit": "nM"}, {"measurement": "Emax (%) (cAMP, CRF1R-overexpression CHO cells)", "result": 58.6, "unit": "%"}]}
{"binder": "FTLSLDVPTKIK([γGlu-Palmitoyl])QKLLKQEKQRKQKQKAKTNAKILARV-NH2 (N-terminus assumed; SMILES CCCCCCCCCCCCCCCC(=O)N[C@@H](CCC(=O)NCCCC[C@H](NC(=O)[C@@H](NC(=O)[C@H](CCCCN)NC(=O)[C@@H](NC(=O)[C@@H]1CCCN1C(=O)[C@@H](NC(=O)[C@H](CC(=O)O)NC(=O)[C@H](CC(C)C)NC(=O)[C@H](CO)NC(=O)[C@H](CC(C)C)NC(=O)[C@@H](NC(=O)[C@@H](N)Cc1ccccc1)[C@@H](C)O)C(C)C)[C@@H](C)O)[C@@H](C)CC)C(=O)N[C@@H](CCC(N)=O)C(=O)N[C@@H](CCCCN)C(=O)N[C@@H](CC(C)C)C(=O)N[C@@H](CC(C)C)C(=O)N[C@@H](CCCCN)C(=O)N[C@@H](CCC(N)=O)C(=O)N[C@@H](CCC(=O)O)C(=O)N[C@@H](CCCCN)C(=O)N[C@@H](CCC(N)=O)C(=O)N[C@@H](CCCNC(=N)N)C(=O)N[C@@H](CCCCN)C(=O)N[C@@H](CCC(N)=O)C(=O)N[C@@H](CCCCN)C(=O)N[C@@H](CCC(N)=O)C(=O)N[C@@H](CCCCN)C(=O)N[C@@H](C)C(=O)N[C@@H](CCCCN)C(=O)N[C@H](C(=O)N[C@@H](CC(N)=O)C(=O)N[C@@H](C)C(=O)N[C@@H](CCCCN)C(=O)N[C@H](C(=O)N[C@@H](CC(C)C)C(=O)N[C@@H](C)C(=O)N[C@@H](CCCNC(=N)N)C(=O)N[C@H](C(N)=O)C(C)C)[C@@H](C)CC)[C@@H](C)O)C(=O)O)", "note": "[peptide of SEQ ID NO: 14]", "values": [{"measurement": "EC50[nM] 0% HSA (cAMP, CRF1R-overexpression CHO cells)", "result": "> 1000", "unit": "nM"}, {"measurement": "Emax (%) (cAMP, CRF1R-overexpression CHO cells)", "result": 14.1, "unit": "%"}]}
{"binder": "FTLSLDVPTKIK([γGlu-Palmitoyl])QKLLKQEKQRKQKQQAKTNAKILARV-NH2 (N-terminus assumed; SMILES CCCCCCCCCCCCCCCC(=O)N[C@@H](CCC(=O)NCCCC[C@H](NC(=O)[C@@H](NC(=O)[C@H](CCCCN)NC(=O)[C@@H](NC(=O)[C@@H]1CCCN1C(=O)[C@@H](NC(=O)[C@H](CC(=O)O)NC(=O)[C@H](CC(C)C)NC(=O)[C@H](CO)NC(=O)[C@H](CC(C)C)NC(=O)[C@@H](NC(=O)[C@@H](N)Cc1ccccc1)[C@@H](C)O)C(C)C)[C@@H](C)O)[C@@H](C)CC)C(=O)N[C@@H](CCC(N)=O)C(=O)N[C@@H](CCCCN)C(=O)N[C@@H](CC(C)C)C(=O)N[C@@H](CC(C)C)C(=O)N[C@@H](CCCCN)C(=O)N[C@@H](CCC(N)=O)C(=O)N[C@@H](CCC(=O)O)C(=O)N[C@@H](CCCCN)C(=O)N[C@@H](CCC(N)=O)C(=O)N[C@@H](CCCNC(=N)N)C(=O)N[C@@H](CCCCN)C(=O)N[C@@H](CCC(N)=O)C(=O)N[C@@H](CCCCN)C(=O)N[C@@H](CCC(N)=O)C(=O)N[C@@H](CCC(N)=O)C(=O)N[C@@H](C)C(=O)N[C@@H](CCCCN)C(=O)N[C@H](C(=O)N[C@@H](CC(N)=O)C(=O)N[C@@H](C)C(=O)N[C@@H](CCCCN)C(=O)N[C@H](C(=O)N[C@@H](CC(C)C)C(=O)N[C@@H](C)C(=O)N[C@@H](CCCNC(=N)N)C(=O)N[C@H](C(N)=O)C(C)C)[C@@H](C)CC)[C@@H](C)O)C(=O)O)", "note": "[peptide of SEQ ID NO: 12]", "values": [{"measurement": "EC50[nM] 0% HSA (cAMP, CRF1R-overexpression CHO cells)", "result": "> 1000", "unit": "nM"}, {"measurement": "Emax (%) (cAMP, CRF1R-overexpression CHO cells)", "result": 41.8, "unit": "%"}]}
{"binder": "IVLSLDVPIGLK([γGlu-Palmitoyl])QKLLKQQRQRKERQQAEKNARILARV-NH2 (N-terminus assumed; SMILES CCCCCCCCCCCCCCCC(=O)N[C@@H](CCC(=O)NCCCC[C@H](NC(=O)[C@H](CC(C)C)NC(=O)CNC(=O)[C@@H](NC(=O)[C@@H]1CCCN1C(=O)[C@@H](NC(=O)[C@H](CC(=O)O)NC(=O)[C@H](CC(C)C)NC(=O)[C@H](CO)NC(=O)[C@H](CC(C)C)NC(=O)[C@@H](NC(=O)[C@@H](N)[C@@H](C)CC)C(C)C)C(C)C)[C@@H](C)CC)C(=O)N[C@@H](CCC(N)=O)C(=O)N[C@@H](CCCCN)C(=O)N[C@@H](CC(C)C)C(=O)N[C@@H](CC(C)C)C(=O)N[C@@H](CCCCN)C(=O)N[C@@H](CCC(N)=O)C(=O)N[C@@H](CCC(N)=O)C(=O)N[C@@H](CCCNC(=N)N)C(=O)N[C@@H](CCC(N)=O)C(=O)N[C@@H](CCCNC(=N)N)C(=O)N[C@@H](CCCCN)C(=O)N[C@@H](CCC(=O)O)C(=O)N[C@@H](CCCNC(=N)N)C(=O)N[C@@H](CCC(N)=O)C(=O)N[C@@H](CCC(N)=O)C(=O)N[C@@H](C)C(=O)N[C@@H](CCC(=O)O)C(=O)N[C@@H](CCCCN)C(=O)N[C@@H](CC(N)=O)C(=O)N[C@@H](C)C(=O)N[C@@H](CCCNC(=N)N)C(=O)N[C@H](C(=O)N[C@@H](CC(C)C)C(=O)N[C@@H](C)C(=O)N[C@@H](CCCNC(=N)N)C(=O)N[C@H](C(N)=O)C(C)C)[C@@H](C)CC)C(=O)O)", "note": "[peptide of SEQ ID NO: 6]", "values": [{"measurement": "EC50[nM] 0% HSA (cAMP, CRF1R-overexpression CHO cells)", "result": 830, "unit": "nM"}, {"measurement": "Emax (%) (cAMP, CRF1R-overexpression CHO cells)", "result": 47.2, "unit": "%"}]}
